The target in series [1] is T1, FN fibrils (Mus musculus, UniProt P11276).
T1 construct: endogenous in cells; host or cells: NIH 3T3 fibroblasts
Nature of the series: Phage clones incubated with growing fibroblast cultures actively assembling matrix; overlap of phage and FN signal. The format is cell-based. The settings on record: for Manders' coefficient with a higher concentration of phage: high concentration phage stocks. On the procedure:
FIGS. 4A-4C are representative photomicrographs of fixed and stained assembled matrices after clone 2 (1×10^12 pfu/mL) was incubated with NIH 3T3 fibroblasts for 2 days, and specifically stained for FN (4A) and phage (4B), as well as a merge of the two images (4C). Insets in 4A and 4B are maximum intensity projections of a single fibril obtained through confocal microscopy from the S2 condition for FN (4A) and phage (4B).
Phage S2 and S2-based phages, effectively label fibrils as they are being assembled.
(§1) To further analyze the interaction between the isolated phages and FN fibrils, each phage clone was incubated with growing fibroblast cultures that were actively assembling matrix. Monolayers were then stained for both phage and FN and resulting images were analyzed to assess the amount of overlap between phage and FN signal. […] To quantify the extent of phage overlap with FN fibrils, Manders' coefficients were generated, which define the percent overlap between the two image channels. Manders' coefficients reveled the percent overlap of the phage fluorescence with FN was highest for clone S2 (Manders' coefficient 0.91). A summary of all Manders' coefficients and phage characterizations can be found in Table 2.
Clone 2 staining was extremely robust and images of matrix assembled in the presence of a higher concentration of phage appeared to have more coverage of fibrils by phage. […] For clone 12, it appears that adding more phage led to higher background staining. […] This is further supported by confocal images depicting a single fibril from a clone 2 incubation in which there is significant overlap between phage and FN at the level of a single fibril.

A further series deals with FN matrix accumulation. Nature of the series: Fusion proteins tested in fibroblast culture for impact on matrix accumulation. It counts as cell-based. On the procedure: (§2) Following purification using glutathione affinity chromatography, the fusion proteins was tested in fibroblast culture to determine if they maintained the properties seen in the phage.
The target of series [2] is T1, FN fibrils. Nature of the series: Fusion proteins tested in fibroblast culture for FN fibril binding. It counts as cell-based. On the procedure:
as §2

The next series relates to FN matrix assembly. As to the kind of experiment: FN matrix accumulation in the presence of phage clones (immunofluorescence, immunoblots of DOC-insoluble FN). The format is cell-based. The source says:
Beyond the ability of the isolated phage clones to bind FN matrix, their potential capacity to modulate matrix accumulation was considered. Given that the clones were panned against a FN fragment containing the assembly domain, it was questioned if they might modulate FN matrix assembly.
For orientation: In western blotting, separated proteins are transferred to a membrane and probed.

The target of series [3] is T1, FN fibrils. As to the kind of experiment: Phage binding to FN fibrils of fixed confluent NIH 3T3 fibroblasts (co-staining for M13 phage and FN). It counts as cell-based. On the procedure:
Confluent NIH 3T3 fibroblasts, which have been well characterized to assemble a dense, fibrillar FN matrix, were used to test phage binding to FN fibrils. Cells were fixed, blocked, and incubated with individual phage clones, then co-stained with antibodies to M13 phage and FN and imaged. Most phage-monolayers looked like the negative control and contained infrequent phage signals that were not aligned with the FN matrix. Several of the clones generated a pattern of phage staining that had some co-localization with FN fibrils but also appeared to contain some phage aggregates.

In another series the test system is FN matrix. As to the kind of experiment: Immunoblot comparing effects of S3 and S20 against a control on formation of FN matrix (FIG. 2). It counts as cell-based. On the procedure: FIG. 2 is an immunoblot comparing the effects of S3 and S20 against a control on the formation of FN matrix.
Referring to FIG. 2, when incubated with cells during matrix assembly, S20 can enhance matrix formation by 60%.

Substrate in series [4]: FN matrix (fibronectin fibrils) assembled by NIH 3T3 fibroblasts (UniProt P11276)
As to the kind of experiment: phage incubated with fibroblasts assembling matrix; overlap of phage fluorescence with FN stain.

Series [5] has as its target T2, FN matrix (fibronectin fibrils) assembled by NIH 3T3 fibroblasts (UniProt P11276 33-2477, limits assumed).
T2 construct: whole, on cells; Fibrillar, cell-assembled fibronectin matrix; also called FN fibrils
Described as above. On the procedure: FIGS. 4A-4C are representative photomicrographs of fixed and stained assembled matrices after clone 2 (1×10¹² pfu/mL) was incubated with NIH 3T3 fibroblasts for 2 days, and specifically stained for FN (4A) and phage (4B), as well as a merge of the two images (4C). Insets in 4A and 4B are maximum intensity projections of a single fibril obtained through confocal microscopy from the S2 condition for FN (4A) and phage (4B).
as §1

Substrate in series [6]: FN matrix (fibronectin fibrils) assembled by NIH 3T3 fibroblasts (UniProt P11276)
As to the kind of experiment: cell-based or functional assay.

Here are results for 24 molecules from patent publication US20250060359A1, “FUSION PROTEINS AND METHODS FOR MONITORING FIBRONECTIN MATRIX ASSEMBLY” (The Trustees of Princeton University, priority 2023, published 2025).

Where no end group is shown, it is not given here.

T1 sequence (P11276 33-2477): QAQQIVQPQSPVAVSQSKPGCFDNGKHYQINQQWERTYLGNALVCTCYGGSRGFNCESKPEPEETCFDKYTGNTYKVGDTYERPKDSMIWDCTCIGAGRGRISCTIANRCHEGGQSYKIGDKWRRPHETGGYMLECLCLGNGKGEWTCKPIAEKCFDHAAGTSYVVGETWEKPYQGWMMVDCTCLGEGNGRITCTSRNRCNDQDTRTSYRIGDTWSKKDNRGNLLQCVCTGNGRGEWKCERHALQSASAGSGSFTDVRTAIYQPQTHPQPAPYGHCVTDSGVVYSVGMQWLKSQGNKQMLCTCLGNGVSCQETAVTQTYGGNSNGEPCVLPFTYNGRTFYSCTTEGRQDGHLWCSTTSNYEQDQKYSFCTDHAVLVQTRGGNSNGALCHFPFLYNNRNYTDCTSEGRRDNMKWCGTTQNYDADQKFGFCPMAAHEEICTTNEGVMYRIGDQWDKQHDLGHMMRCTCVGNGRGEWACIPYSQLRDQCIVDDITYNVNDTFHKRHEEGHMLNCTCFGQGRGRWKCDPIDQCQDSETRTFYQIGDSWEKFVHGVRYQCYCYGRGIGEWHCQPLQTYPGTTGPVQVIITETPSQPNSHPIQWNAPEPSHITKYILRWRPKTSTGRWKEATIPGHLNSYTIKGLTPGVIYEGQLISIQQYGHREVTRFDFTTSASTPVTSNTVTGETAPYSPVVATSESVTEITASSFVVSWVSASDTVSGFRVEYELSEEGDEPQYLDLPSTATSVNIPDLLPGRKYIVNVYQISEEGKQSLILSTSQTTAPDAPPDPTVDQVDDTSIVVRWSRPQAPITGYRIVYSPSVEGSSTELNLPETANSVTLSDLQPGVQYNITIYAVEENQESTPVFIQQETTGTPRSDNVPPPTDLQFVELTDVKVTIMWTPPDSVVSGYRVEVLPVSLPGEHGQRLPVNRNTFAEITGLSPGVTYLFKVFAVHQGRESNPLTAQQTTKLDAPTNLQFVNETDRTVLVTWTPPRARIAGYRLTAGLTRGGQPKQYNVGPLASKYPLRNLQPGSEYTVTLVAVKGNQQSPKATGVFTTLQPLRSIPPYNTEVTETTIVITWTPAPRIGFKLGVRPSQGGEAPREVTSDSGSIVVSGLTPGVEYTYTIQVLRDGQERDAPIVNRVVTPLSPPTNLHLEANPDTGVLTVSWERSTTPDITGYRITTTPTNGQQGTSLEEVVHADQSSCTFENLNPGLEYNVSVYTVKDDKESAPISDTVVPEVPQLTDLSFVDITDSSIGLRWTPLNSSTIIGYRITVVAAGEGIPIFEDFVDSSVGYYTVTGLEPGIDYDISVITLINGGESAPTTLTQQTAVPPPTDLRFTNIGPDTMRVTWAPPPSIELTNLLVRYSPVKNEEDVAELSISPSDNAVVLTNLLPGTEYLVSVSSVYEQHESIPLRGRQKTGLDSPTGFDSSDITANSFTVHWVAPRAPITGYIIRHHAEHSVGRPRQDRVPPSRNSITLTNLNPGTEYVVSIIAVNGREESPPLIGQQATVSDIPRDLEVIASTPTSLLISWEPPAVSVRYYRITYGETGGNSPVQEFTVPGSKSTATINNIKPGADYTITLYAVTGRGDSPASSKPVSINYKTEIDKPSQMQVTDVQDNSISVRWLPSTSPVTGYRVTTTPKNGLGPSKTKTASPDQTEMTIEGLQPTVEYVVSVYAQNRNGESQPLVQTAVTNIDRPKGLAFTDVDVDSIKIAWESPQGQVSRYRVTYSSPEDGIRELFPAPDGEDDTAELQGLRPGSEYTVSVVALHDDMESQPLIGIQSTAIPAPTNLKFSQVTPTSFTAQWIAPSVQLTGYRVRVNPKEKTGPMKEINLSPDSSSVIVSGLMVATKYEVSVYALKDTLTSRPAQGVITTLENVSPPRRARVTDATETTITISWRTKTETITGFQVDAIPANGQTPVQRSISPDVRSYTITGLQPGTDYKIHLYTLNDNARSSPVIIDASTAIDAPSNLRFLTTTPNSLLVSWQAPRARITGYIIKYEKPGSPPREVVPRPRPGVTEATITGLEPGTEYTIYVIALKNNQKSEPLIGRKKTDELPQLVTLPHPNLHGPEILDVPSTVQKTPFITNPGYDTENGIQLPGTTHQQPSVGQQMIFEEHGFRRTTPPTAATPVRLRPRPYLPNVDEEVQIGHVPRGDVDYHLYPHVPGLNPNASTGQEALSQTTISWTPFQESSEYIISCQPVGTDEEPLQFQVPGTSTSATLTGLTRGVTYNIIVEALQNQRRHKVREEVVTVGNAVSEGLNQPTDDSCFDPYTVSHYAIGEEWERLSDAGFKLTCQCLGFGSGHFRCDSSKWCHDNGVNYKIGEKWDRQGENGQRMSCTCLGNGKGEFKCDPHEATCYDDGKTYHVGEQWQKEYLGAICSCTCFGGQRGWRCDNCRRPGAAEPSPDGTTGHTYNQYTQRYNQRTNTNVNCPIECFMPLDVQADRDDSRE
Sequence of FN matrix (fibronectin fibrils) assembled by NIH 3T3 fibroblasts (UniProt P11276) (P11276 33-2477 limits assumed): as the sequence (P11276 33-2477) above
T2 sequence (P11276 33-2477 limits assumed): as the sequence (P11276 33-2477) above

On to DYSYFDLWYSDT [Clone 12, 29], for which the “Manders' coefficient with a higher concentration of phage” value at FN fibrils [1] is “the Manders' coefficient did not indicate higher coverage with inclusion of more phage”.

Regarding “GST-S3-GFP: fusion protein of GST, S3 peptide and GFP (NHVALWGTGTAS; not fully specified (N-terminus, C-terminus); also: fusion protein, GST dimerising)”, the “impact on matrix accumulation” value in the series with FN matrix accumulation is “neither the S3 or S20 fusion proteins showed any matrix binding capacity or impact on matrix accumulation”. Further, the FN fibril binding result with FN fibrils [2] is “no detectable FN fibril binding”. Take “GST-S20-GFP: fusion protein of GST, S20 peptide and GFP (SDITPWWLLAQD; not fully specified (N-terminus, C-terminus); also: fusion protein, GST dimerising)”: the “impact on matrix accumulation” value in the series on FN matrix accumulation was “neither the S3 or S20 fusion proteins showed any matrix binding capacity or impact on matrix accumulation”. Besides, the FN fibril binding result with FN fibrils [2] is “no detectable FN fibril binding”. Regarding GSYDWTKLPGLE [Clone 2, 16, 31, 48], the “FN matrix accumulation by immunofluorescence” value (“FN matrix accumulation” for short) with FN matrix assembly is “did not appear to impact FN matrix assembly”. For the same molecule, the “pattern of phage staining, co-localization with FN matrix” value on FN fibrils [3] was “created a fibrillar pattern that colocalized with the FN matrix better than the other phages”. Besides, the “Manders' coefficient with a higher concentration of phage” value on FN fibrils [1] was “maintenance of the high Manders' coefficient”. The “Manders' Coefficient” value on FN fibrils [1] (overlap of the phage fluorescence with FN, growing fibroblast cultures) was found to be 0.91. For the same molecule, the “labeling of FN fibrils with incorporated phage” value at FN fibrils [1] (phage incubated with fibroblasts as they assembled fibrils) was “complete labeling of FN fibrils with incorporated phage”.

For the molecule NHVALWGTGTAS [Clone 3, 5, 27, 28], the “FN matrix accumulation” value with FN matrix assembly is on record as “without repressing FN matrix immunofluorescence signal”. Take NHVALWGTGTAS [Clone S3]: in the series with FN matrix, the “effect on matrix formation” value is “inhibits matrix formation”. “S2-GFP: GST-S2-GFP after cleavage of the GST tag (GSYDWTKLPGLE; not fully specified (C-terminus)) [Clone S2-GFP]”: the FN fibril binding result with FN fibrils [2] is given as “completely ablated FN fibril binding”. Turning to SDITPWWLLAQD [Clone 20, 21, 46], the “FN matrix accumulation” value in the series on FN matrix assembly is “increased FN matrix assembly by two-fold”.

Turning to SDITPWWLLAQD [Clone S20], the “effect on matrix formation” value in the series on FN matrix is on record as “enhances matrix formation”. In the series with FN matrix (incubated with cells during matrix assembly), the “enhancement of matrix formation” value is 60%. In the case of VSGYNVMPLNGD (peptide, not shown: large carriers, not fully specified) [M13 phage clone 1 displaying …], the Manders' Coefficient in [4] was 0.253. The same measure, in the same setting: under NHVALWGTGTAS (peptide, not shown: large carriers, not fully specified) [M13 phage clone 3 (3, 5, 27, 28) displaying … (S3)] stands 0.527.

B1: M13 phage clone 12 (12, 29) displaying DYSYFDLWYSDT (peptide)
chain: DYSYFDLWYSDT
modifications: not fully specified (C-terminus)
notes: Whole phage particle stood in the assay; not shown: pIII protein of M13 phage; the peptide is its N-terminal fusion
On to B1, for which the “Manders' Coefficient” value in [5] is 0.746. With IAYPTDMSLSYK (peptide, not shown: large carriers, not fully specified) [M13 phage clone 33 displaying …], the Manders' Coefficient in [4] was determined as 0.56.

B2: M13 phage clone 2 (2, 16, 31, 48) displaying GSYDWTKLPGLE (S2) (peptide)
chain: GSYDWTKLPGLE
modifications: not fully specified (C-terminus)
notes: Whole phage particle stood in the assay; also called clone S2; clone s2; not shown: pIII protein of M13 phage; the peptide is its N-terminal fusion
On to B2, for which the “Manders' Coefficient” value in series [5] worked out at 0.913. For the molecule DHVSLSGRSAAM (peptide, not shown: large carriers, not fully specified) [M13 phage clone 11 displaying …], the Manders' Coefficient in series [4] turned out to be 0.173.

As for HNQTMWWTFPST (peptide, not shown: large carriers, not fully specified) [M13 phage clone 4 (4, 44) displaying …], the Manders' Coefficient in series [4] is 0.47. The same measure, in the same setting: under WHVALTGNNLER (peptide, not shown: large carriers, not fully specified) [M13 phage clone 37 displaying …] stands 0.698; under SITEFNLLPGLW (peptide, not shown: large carriers, not fully specified) [M13 phage clone 6 (6, 35) displaying …], 0.606; under AHXRLSGSAPMF-{pIII (M13 phage)} (peptide, not shown: large carriers, not fully specified) [M13 phage clone 7 (7, 22, 38) displaying AHB…], 0.39.

Regarding HWSGTHALSGRA (peptide, not shown: large carriers, not fully specified) [M13 phage clone 9 (9, 42) displaying …], the Manders' Coefficient in [4] turned out to be 0.588. Same read-out and setting: under DHIPLRGQRVWQ (peptide, not shown: large carriers, not fully specified) [M13 phage clone 19 (19, 24, 32, 41, 45) displaying …] stands 0.397. Consider SDITPWWLLAQD (peptide, not shown: large carriers, not fully specified) [M13 phage clone 20 (20, 21, 46) displaying … (S20)], for which, in [6], the matrix formation (FIG. 2 immunoblot) turned out to be 60%. Further, in [4], the Manders' Coefficient worked out at 0.552.

B3: M13 phage clone 39 displaying YSTTMWQYLPGA (peptide)
chain: YSTTMWQYLPGA
modifications: not fully specified (C-terminus)
notes: as for B1
Consider B3, for which, in series [5], the “Manders' Coefficient” value stood at 0.677. With YVTNWGSLSGSY (peptide, not shown: large carriers, not fully specified) [M13 phage clone 23 displaying …], in series [4], the Manders' Coefficient was determined as 0.675.
